Where two headings read alike, the source gives them in different places.
What was measured:
[1] = target: sea urchin sperm flagellar axonemes (sea urchin); assay: optical trapping bead assay
[2] = target: sea urchin sperm flagellar axonemes (sea urchin); assay: single-molecule fluorescence motility assay
[3] = target: sea urchin sperm flagellar axonemes (sea urchin); assay: single-molecule fluorescence motility assay; remark: listed apart in the source
[4] = target: microtubules (taxol-stabilized; polymer of alpha- and beta-tubulin)
[5] = target: sea urchin sperm flagellar axonemes (sea urchin); assay: single-molecule fluorescence motility assay; remark: listed apart in the source

| Km(MT) of the microtubule-stimulated ATPase, NEM-modified control [4] [μM tubulin] | Km(MT) of the microtubule-stimulated ATPase, with 200 μM DTNB [4] [μM tubulin] | Km(MT) of the microtubule-stimulated ATPase, without DTNB [4] [μM tubulin] | Substance | further results |
| --- | --- | --- | --- | --- |
| – | – | – | Cys344 Cys-light K560-GFP (neck coiled-coil mutant Tyr344Cys) (from UniProt P33176 1-560) (domain or fragment) | fold change of the dissociation rate under load (with DTNB against without DTNB) [1]: 1.2 fold; frequency of movement/binding [2]: 2 /min/μm/nM; frequency of movement/binding [3]: 2 /min/μm/nM |
| 1.51 | 2.36 | 0.62 | Cys334/Cys222 Cys-light K560-GFP (neck linker mutant Glu334Cys/Lys222Cys) (from UniProt P33176 1-560) (domain or fragment) | – |
| – | – | – | Cys337 Cys-light K560-GFP (neck coiled-coil mutant Ala337Cys) (from UniProt P33176 1-560) (domain or fragment) | association time [2]: 3.7 s |
| – | – | – | Cys337/Cys344 Cys-light K560-GFP (neck coiled-coil double mutant Ala337Cys/Tyr344Cys) (from UniProt P33176 1-560) (domain or fragment) | association time [5]: 2.5 s; association time [3]: 3.8 s |
| 0.45 | 2.35 | 0.57 | Cys330/Cys4 Cys-light K560-GFP (neck linker mutant Ser330Cys/Leu4Cys) (from UniProt P33176 1-560) (domain or fragment) | – |
